The text below walks through data of patent US8969060B2, “Modified glucose dehydrogenase” (Ikeda Food Research Co., Ltd., priority 2011, dated 2015).

Series [1] in a line: Relative enzymatic activity of GLD (DCIP/1-m-PMS, plate reader, yeast culture supernatant) with proflavin hydrochloride present. Type of series: biochemical. The conditions noted are these: site-specific mutants, inhibitor final concentration 1 mM. The method in brief: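 Culture supernatant diluted and mixed with reagent of phosphate buffer pH 7.0, 1.0 M D-glucose, 3 mM DCIP, 3 mM 1-m-PMS and methanol (0.1:1:0.14:0.2:0.06). DCIP absorbance decrease at 600 nm followed; proflavin hydrochloride in methanol replaced methanol at 1 mM final. Activity expressed as % of inhibitor-free blank.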

The nature of series [2]: Relative enzymatic activity of GLD (DCIP/1-m-PMS, plate reader, yeast culture supernatant) with 1,10-phenanthroline present. It counts as biochemical. The conditions noted are these: site-specific mutants, inhibitor final concentration 1 mM. The method in brief: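 Inhibitor at 1 mM final substitutes for the methanol in the reagent, and the sample rate is expressed as % of the inhibitor-free blank. Rates come from ΔA600/min of DCIP with glucose and 1-m-PMS at pH 7.0, using supernatants of YPD-grown yeast clones (24 h, 30° C.).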

B1: G426F: modified GLD: SEQ ID NO: 1 with substitution G426F (protein, listed as Aspergillus terreus)
chain: MLGKLSFLSALSLAVAAPLSNSTSAKYDYIVIGGGTSGLAVANRLSEDPNVNVLILEAGGSVWNNPNVTNVDGYGLAFGSDIDWQYQSVNQPYGGNLSQVLRAGKALGGTSTINGMAYTRAEDVQIDAWETIGNTGWTWKNLFPYYRKSENFTVPTKSQTSLGASYEAGAHGHEGPLDVAFTQIESNNLTTYLNRTFQGMGLPWTEDVNGGKMRGFNLYPSTVNLEEYVREDAARAYYWPYKSRPNLHVLLNTFANRIVWDGEAHDGHITASGVEITSRNGTVRVINAEKEVIVSAGALKSPAILELSGIGNPSVLDKHNIPVKVNLPTVGENLQDQVNSHMDASGNTSISGTKAVSYPDVYDVFGDEAESVAKQIRANLKQYAADTAKANGNIMKAADLERLFEVQYDLIFKGRVPIAEVLNYPFSATSVFAEFWALLPFARGSVHIGSSNPAEFPVINPNYFMLDWDAKSYVAVAKYIRRSFESYPLSSIVKESTPGYDVIPRNASEQSWKEWVFDKNYRSNFHPVGTAAMMPREIGGVVDERLNVYGTTNVRVVDASVLPFQVCGHLVSTLYAVAERAADLIKADAGRR
modifications: SIGNAL (1)..(19)
B1: in series [1], the “Relative Activity [%] Proflavin hydrochloride” value came out at 51.8%. Besides, the “Relative Activity [%] 1,10-Phenanthroline” value in series [2] is recorded as 60.5%.

B2: G426I: modified GLD: SEQ ID NO: 1 with substitution G426I (protein, listed as Aspergillus terreus)
chain: MLGKLSFLSALSLAVAAPLSNSTSAKYDYIVIGGGTSGLAVANRLSEDPNVNVLILEAGGSVWNNPNVTNVDGYGLAFGSDIDWQYQSVNQPYGGNLSQVLRAGKALGGTSTINGMAYTRAEDVQIDAWETIGNTGWTWKNLFPYYRKSENFTVPTKSQTSLGASYEAGAHGHEGPLDVAFTQIESNNLTTYLNRTFQGMGLPWTEDVNGGKMRGFNLYPSTVNLEEYVREDAARAYYWPYKSRPNLHVLLNTFANRIVWDGEAHDGHITASGVEITSRNGTVRVINAEKEVIVSAGALKSPAILELSGIGNPSVLDKHNIPVKVNLPTVGENLQDQVNSHMDASGNTSISGTKAVSYPDVYDVFGDEAESVAKQIRANLKQYAADTAKANGNIMKAADLERLFEVQYDLIFKGRVPIAEVLNYPISATSVFAEFWALLPFARGSVHIGSSNPAEFPVINPNYFMLDWDAKSYVAVAKYIRRSFESYPLSSIVKESTPGYDVIPRNASEQSWKEWVFDKNYRSNFHPVGTAAMMPREIGGVVDERLNVYGTTNVRVVDASVLPFQVCGHLVSTLYAVAERAADLIKADAGRR
modifications: SIGNAL (1)..(19)
On to B2, for which the “Relative Activity [%] Proflavin hydrochloride” value in series [1] worked out at 63.4%. For the same molecule, the “Relative Activity [%] 1,10-Phenanthroline” value in series [2] turned out to be 93.2%.

B3: G426L: modified GLD: SEQ ID NO: 1 with substitution G426L (protein, listed as Aspergillus terreus)
chain: MLGKLSFLSALSLAVAAPLSNSTSAKYDYIVIGGGTSGLAVANRLSEDPNVNVLILEAGGSVWNNPNVTNVDGYGLAFGSDIDWQYQSVNQPYGGNLSQVLRAGKALGGTSTINGMAYTRAEDVQIDAWETIGNTGWTWKNLFPYYRKSENFTVPTKSQTSLGASYEAGAHGHEGPLDVAFTQIESNNLTTYLNRTFQGMGLPWTEDVNGGKMRGFNLYPSTVNLEEYVREDAARAYYWPYKSRPNLHVLLNTFANRIVWDGEAHDGHITASGVEITSRNGTVRVINAEKEVIVSAGALKSPAILELSGIGNPSVLDKHNIPVKVNLPTVGENLQDQVNSHMDASGNTSISGTKAVSYPDVYDVFGDEAESVAKQIRANLKQYAADTAKANGNIMKAADLERLFEVQYDLIFKGRVPIAEVLNYPLSATSVFAEFWALLPFARGSVHIGSSNPAEFPVINPNYFMLDWDAKSYVAVAKYIRRSFESYPLSSIVKESTPGYDVIPRNASEQSWKEWVFDKNYRSNFHPVGTAAMMPREIGGVVDERLNVYGTTNVRVVDASVLPFQVCGHLVSTLYAVAERAADLIKADAGRR
modifications: SIGNAL (1)..(19)
In the case of B3, the “Relative Activity [%] Proflavin hydrochloride” value in series [1] amounted to 63.7%. In addition, the “Relative Activity [%] 1,10-Phenanthroline” value in series [2] is on record as 91.2%.

B4: G426H: modified GLD: SEQ ID NO: 1 with substitution G426H (protein, listed as Aspergillus terreus)
chain: MLGKLSFLSALSLAVAAPLSNSTSAKYDYIVIGGGTSGLAVANRLSEDPNVNVLILEAGGSVWNNPNVTNVDGYGLAFGSDIDWQYQSVNQPYGGNLSQVLRAGKALGGTSTINGMAYTRAEDVQIDAWETIGNTGWTWKNLFPYYRKSENFTVPTKSQTSLGASYEAGAHGHEGPLDVAFTQIESNNLTTYLNRTFQGMGLPWTEDVNGGKMRGFNLYPSTVNLEEYVREDAARAYYWPYKSRPNLHVLLNTFANRIVWDGEAHDGHITASGVEITSRNGTVRVINAEKEVIVSAGALKSPAILELSGIGNPSVLDKHNIPVKVNLPTVGENLQDQVNSHMDASGNTSISGTKAVSYPDVYDVFGDEAESVAKQIRANLKQYAADTAKANGNIMKAADLERLFEVQYDLIFKGRVPIAEVLNYPHSATSVFAEFWALLPFARGSVHIGSSNPAEFPVINPNYFMLDWDAKSYVAVAKYIRRSFESYPLSSIVKESTPGYDVIPRNASEQSWKEWVFDKNYRSNFHPVGTAAMMPREIGGVVDERLNVYGTTNVRVVDASVLPFQVCGHLVSTLYAVAERAADLIKADAGRR
modifications: SIGNAL (1)..(19)
As to B4, the “Relative Activity [%] Proflavin hydrochloride” value in series [1] is recorded as 48.7%. For the same molecule, the “Relative Activity [%] 1,10-Phenanthroline” value in series [2] is listed as 54.9%.

B5: G426K: modified GLD: SEQ ID NO: 1 with substitution G426K (protein, listed as Aspergillus terreus)
chain: MLGKLSFLSALSLAVAAPLSNSTSAKYDYIVIGGGTSGLAVANRLSEDPNVNVLILEAGGSVWNNPNVTNVDGYGLAFGSDIDWQYQSVNQPYGGNLSQVLRAGKALGGTSTINGMAYTRAEDVQIDAWETIGNTGWTWKNLFPYYRKSENFTVPTKSQTSLGASYEAGAHGHEGPLDVAFTQIESNNLTTYLNRTFQGMGLPWTEDVNGGKMRGFNLYPSTVNLEEYVREDAARAYYWPYKSRPNLHVLLNTFANRIVWDGEAHDGHITASGVEITSRNGTVRVINAEKEVIVSAGALKSPAILELSGIGNPSVLDKHNIPVKVNLPTVGENLQDQVNSHMDASGNTSISGTKAVSYPDVYDVFGDEAESVAKQIRANLKQYAADTAKANGNIMKAADLERLFEVQYDLIFKGRVPIAEVLNYPKSATSVFAEFWALLPFARGSVHIGSSNPAEFPVINPNYFMLDWDAKSYVAVAKYIRRSFESYPLSSIVKESTPGYDVIPRNASEQSWKEWVFDKNYRSNFHPVGTAAMMPREIGGVVDERLNVYGTTNVRVVDASVLPFQVCGHLVSTLYAVAERAADLIKADAGRR
modifications: SIGNAL (1)..(19)
With B5, the “Relative Activity [%] Proflavin hydrochloride” value in series [1] is on record as 65.4%. Moreover, in series [2], the “Relative Activity [%] 1,10-Phenanthroline” value is given as 94.3%.

B6: G426M: modified GLD: SEQ ID NO: 1 with substitution G426M (protein, listed as Aspergillus terreus)
chain: MLGKLSFLSALSLAVAAPLSNSTSAKYDYIVIGGGTSGLAVANRLSEDPNVNVLILEAGGSVWNNPNVTNVDGYGLAFGSDIDWQYQSVNQPYGGNLSQVLRAGKALGGTSTINGMAYTRAEDVQIDAWETIGNTGWTWKNLFPYYRKSENFTVPTKSQTSLGASYEAGAHGHEGPLDVAFTQIESNNLTTYLNRTFQGMGLPWTEDVNGGKMRGFNLYPSTVNLEEYVREDAARAYYWPYKSRPNLHVLLNTFANRIVWDGEAHDGHITASGVEITSRNGTVRVINAEKEVIVSAGALKSPAILELSGIGNPSVLDKHNIPVKVNLPTVGENLQDQVNSHMDASGNTSISGTKAVSYPDVYDVFGDEAESVAKQIRANLKQYAADTAKANGNIMKAADLERLFEVQYDLIFKGRVPIAEVLNYPMSATSVFAEFWALLPFARGSVHIGSSNPAEFPVINPNYFMLDWDAKSYVAVAKYIRRSFESYPLSSIVKESTPGYDVIPRNASEQSWKEWVFDKNYRSNFHPVGTAAMMPREIGGVVDERLNVYGTTNVRVVDASVLPFQVCGHLVSTLYAVAERAADLIKADAGRR
modifications: SIGNAL (1)..(19)
Take B6: the “Relative Activity [%] Proflavin hydrochloride” value in series [1] is recorded as 58.8%. Moreover, in series [2], the “Relative Activity [%] 1,10-Phenanthroline” value amounted to 78.3%.
